T1: Lsb1, P53281
T1 sequence (P53281 45-122, looked up): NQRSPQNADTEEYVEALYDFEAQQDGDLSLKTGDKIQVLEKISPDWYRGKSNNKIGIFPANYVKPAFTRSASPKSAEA

T2: Bud14, P27637
T2 sequence (P27637 247-328, looked up): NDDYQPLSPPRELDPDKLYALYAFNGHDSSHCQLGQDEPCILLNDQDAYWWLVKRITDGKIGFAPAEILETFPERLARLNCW

T3: Pex13, P80667
T3 sequence (P80667 295-386, looked up): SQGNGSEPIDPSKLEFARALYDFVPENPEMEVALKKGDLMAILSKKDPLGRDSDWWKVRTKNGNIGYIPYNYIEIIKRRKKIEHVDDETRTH

T4: Sla1-3, P32790
T4 sequence (P32790 344-424, looked up): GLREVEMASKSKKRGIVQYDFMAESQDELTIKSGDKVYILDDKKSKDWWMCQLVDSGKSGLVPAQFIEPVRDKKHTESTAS

T5: Cdc25, P04821
T5 sequence (P04821 50-136, looked up): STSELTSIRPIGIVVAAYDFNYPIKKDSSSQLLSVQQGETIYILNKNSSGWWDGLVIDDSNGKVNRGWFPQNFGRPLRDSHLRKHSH

T6: Cyk3, Q07533
T6 sequence (Q07533 1-83, looked up): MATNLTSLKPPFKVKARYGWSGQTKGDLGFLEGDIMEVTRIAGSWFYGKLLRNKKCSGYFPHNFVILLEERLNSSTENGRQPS

T7: Nbp2, Q12163
T7 sequence (Q12163 103-180, looked up): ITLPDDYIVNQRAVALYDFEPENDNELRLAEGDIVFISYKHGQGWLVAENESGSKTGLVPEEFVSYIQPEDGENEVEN

T8: Lsb3, P43603
T8 sequence (P43603 385-451, looked up): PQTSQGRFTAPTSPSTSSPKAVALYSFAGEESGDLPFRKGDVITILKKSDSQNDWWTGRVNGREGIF

T9: Bzz1-2, P38822
T9 sequence (P38822 568-633, looked up): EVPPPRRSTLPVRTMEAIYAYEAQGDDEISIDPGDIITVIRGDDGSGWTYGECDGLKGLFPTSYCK

T10: Abp1, P15891
T10 sequence (P15891 535-592, looked up): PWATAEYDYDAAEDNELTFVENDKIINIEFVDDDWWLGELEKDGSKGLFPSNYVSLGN

T11: Hof1, Q05080
T11 sequence (Q05080 590-669, looked up): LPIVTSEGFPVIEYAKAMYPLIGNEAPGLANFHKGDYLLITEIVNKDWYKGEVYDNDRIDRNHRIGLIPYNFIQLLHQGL

T12: Sla1-2, P32790
T12 sequence (P32790 60-140, looked up): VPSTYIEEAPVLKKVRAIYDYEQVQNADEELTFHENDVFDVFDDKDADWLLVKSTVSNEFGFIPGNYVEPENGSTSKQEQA

T13: Fus1, P11710
T13 sequence (P11710 432-512, looked up): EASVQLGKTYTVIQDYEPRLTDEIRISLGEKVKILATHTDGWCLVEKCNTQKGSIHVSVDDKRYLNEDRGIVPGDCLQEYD

T14: Lsb4, P32793
T14 sequence (P32793 402-468, looked up): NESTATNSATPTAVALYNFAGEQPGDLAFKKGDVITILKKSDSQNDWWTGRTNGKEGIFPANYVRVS

T15: Pin3, Q06449
T15 sequence (Q06449 53-122, looked up): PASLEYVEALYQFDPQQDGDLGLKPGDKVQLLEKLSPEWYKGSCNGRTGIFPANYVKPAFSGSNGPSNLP

T16: Boi2, P39969
T16 sequence (P39969 32-116, looked up): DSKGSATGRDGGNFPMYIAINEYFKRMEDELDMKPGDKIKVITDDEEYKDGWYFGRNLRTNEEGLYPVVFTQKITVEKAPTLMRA

T17: Boi1, P38041
T17 sequence (P38041 1-86, looked up): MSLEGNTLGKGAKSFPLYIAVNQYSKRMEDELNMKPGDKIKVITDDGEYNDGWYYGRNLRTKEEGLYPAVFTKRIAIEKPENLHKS

T18: Bzz1-1, P38822
T18 sequence (P38822 478-572, looked up): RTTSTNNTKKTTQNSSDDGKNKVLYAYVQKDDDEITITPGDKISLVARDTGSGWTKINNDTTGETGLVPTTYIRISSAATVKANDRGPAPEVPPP

T19: Bbc1, P47068
T19 sequence (P47068 1-78, looked up): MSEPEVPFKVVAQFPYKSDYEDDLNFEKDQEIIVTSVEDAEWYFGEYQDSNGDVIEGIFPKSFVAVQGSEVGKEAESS

T20: Hse1, P38753
T20 sequence (P38753 208-285, looked up): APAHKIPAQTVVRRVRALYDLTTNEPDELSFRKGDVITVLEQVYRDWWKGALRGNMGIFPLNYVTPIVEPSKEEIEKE

T21: Myo5, Q04439
T21 sequence (Q04439 1072-1160, looked up): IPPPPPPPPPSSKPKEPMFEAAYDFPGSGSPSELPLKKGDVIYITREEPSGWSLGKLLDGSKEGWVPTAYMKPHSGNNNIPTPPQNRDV


Columns and labels:
Assay in all cases: SPOT array
Lsb1, P53281 = target: T1, Lsb1, P53281; details: median of control spots 388
Bud14, P27637 = target: T2, Bud14, P27637; details: median of control spots 956
Pex13, P80667 = target: T3, Pex13, P80667; details: median of control spots 1341
Sla1-3, P32790 = target: T4, Sla1-3, P32790; details: median of control spots 5475
Cdc25, P04821 = target: T5, Cdc25, P04821; details: median of control spots 969
Bem1-2, P29366 = details: median of control spots 4347
Cyk3, Q07533 = target: T6, Cyk3, Q07533; details: median of control spots 1451
Nbp2, Q12163 = target: T7, Nbp2, Q12163; details: median of control spots 357
Lsb3, P43603 = target: T8, Lsb3, P43603; details: median of control spots 406
Bzz1-2, P38822 = target: T9, Bzz1-2, P38822; details: median of control spots 4538
Abp1, P15891 = target: T10, Abp1, P15891; details: median of control spots 935
Hof1, Q05080 = target: T11, Hof1, Q05080; details: median of control spots 4086
Sla1-2, P32790 = target: T12, Sla1-2, P32790; details: median of control spots 712
Fus1, P11710 = target: T13, Fus1, P11710; details: median of control spots 1200
Lsb4, P32793 = target: T14, Lsb4, P32793; details: median of control spots 397
Pin3, Q06449 = target: T15, Pin3, Q06449; details: median of control spots 2171
Boi2, P39969 = target: T16, Boi2, P39969; details: median of control spots 1161
Boi1, P38041 = target: T17, Boi1, P38041; details: median of control spots 1162
Bzz1-1, P38822 = target: T18, Bzz1-1, P38822; details: median of control spots 4446
Bem1-1, P29366 = details: median of control spots 4282
Rvs167, P39743 = details: median of control spots 2707
GST = details: median of control spots 978
Sho1, P40073 = details: median of control spots 1148
Bbc1, P47068 = target: T19, Bbc1, P47068; details: median of control spots 796
Hse1, P38753 = target: T20, Hse1, P38753; details: median of control spots 1727
Myo3, P36006 = details: median of control spots 468
Myo5, Q04439 = target: T21, Myo5, Q04439; details: median of control spots 471

Sequence of Bem1-2, P29366 (P29366 139-227): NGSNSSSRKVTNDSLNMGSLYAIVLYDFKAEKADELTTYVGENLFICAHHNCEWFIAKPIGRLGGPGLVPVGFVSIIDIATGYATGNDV
Sequence of Rvs167, P39743 (P39743 419-482): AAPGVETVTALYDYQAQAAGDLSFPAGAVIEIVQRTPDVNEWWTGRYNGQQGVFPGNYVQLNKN
Sequence of Sho1, P40073 (P40073 287-367): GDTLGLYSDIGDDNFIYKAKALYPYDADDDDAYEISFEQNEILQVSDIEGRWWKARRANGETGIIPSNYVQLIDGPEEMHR
Sequence of Bem1-1, P29366 (P29366 55-141): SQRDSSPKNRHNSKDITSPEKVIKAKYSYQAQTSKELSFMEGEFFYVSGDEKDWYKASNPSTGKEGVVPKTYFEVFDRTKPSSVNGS

Row | SPOT intensity (Lsb1, P53281) | SPOT intensity (Bud14, P27637) | SPOT intensity (Pex13, P80667) | SPOT intensity (Sla1-3, P32790) | SPOT intensity (Cdc25, P04821) | SPOT intensity (Bem1-2, P29366) | SPOT intensity (Cyk3, Q07533) | SPOT intensity (Nbp2, Q12163) | SPOT intensity (Lsb3, P43603) | SPOT intensity (Bzz1-2, P38822) | SPOT intensity (Abp1, P15891) | SPOT intensity (Hof1, Q05080) | SPOT intensity (Sla1-2, P32790) | SPOT intensity (Fus1, P11710) | SPOT intensity (Lsb4, P32793) | SPOT intensity (Pin3, Q06449) | SPOT intensity (Boi2, P39969) | SPOT intensity (Boi1, P38041) | SPOT intensity (Bzz1-1, P38822) | SPOT intensity (Bem1-1, P29366) | Binder | other results
1 | 17 | 1 | 13 | 4 | 5 | 1860 | 0 | 750 | 0 | 0 | 19 | 0 | 0 | 0 | 4 | 5 | 0 | 0 | 1 | 0 | AHFQPQRTAPKPPIS | SPOT intensity (Rvs167, P39743): 0; SPOT intensity (GST): 0; SPOT intensity (Sho1, P40073): 1; SPOT intensity (Bbc1, P47068): 101; SPOT intensity (Hse1, P38753): 0; SPOT intensity (Myo3, P36006): 413; SPOT intensity (Myo5, Q04439): 104
2 | 2 | 0 | 54 | 0 | 0 | 0 | 1 | 1 | 0 | 0 | 44 | 0 | 1 | 0 | 9 | 43 | 1 | 0 | 0 | 0 | IAPIPMPKPNPTHIS | SPOT intensity (Rvs167, P39743): 0; SPOT intensity (GST): 0; SPOT intensity (Sho1, P40073): 0; SPOT intensity (Bbc1, P47068): 0; SPOT intensity (Hse1, P38753): 0; SPOT intensity (Myo3, P36006): 22; SPOT intensity (Myo5, Q04439): 7
3 | 47 | 1 | 352 | 0 | 4 | 0 | 0 | 15 | 53 | 2 | 231 | 6 | 18 | 0 | 56 | 115 | 2 | 0 | 0 | 0 | IRMPSNPALPKKLLN | SPOT intensity (Rvs167, P39743): 0; SPOT intensity (GST): 0; SPOT intensity (Sho1, P40073): 79; SPOT intensity (Bbc1, P47068): 2; SPOT intensity (Hse1, P38753): 16; SPOT intensity (Myo3, P36006): 72; SPOT intensity (Myo5, Q04439): 81
4 | 3 | 2 | 44 | 9 | 3 | 45 | 0 | 276 | 2 | 2 | 42 | 0 | 0 | 0 | 1 | 7 | 1 | 0 | 2 | 0 | QPQRTAPKPPISAPR | SPOT intensity (Rvs167, P39743): 0; SPOT intensity (GST): 0; SPOT intensity (Sho1, P40073): 0; SPOT intensity (Bbc1, P47068): 55; SPOT intensity (Hse1, P38753): 0; SPOT intensity (Myo3, P36006): 294; SPOT intensity (Myo5, Q04439): 230
5 | 24 | 0 | 116 | 2 | 0 | 2 | 1 | 53 | 45 | 2 | 102 | 0 | 2 | 0 | 33 | 192 | 1 | 0 | 0 | 0 | STPQTMRQAPKRPDA | SPOT intensity (Rvs167, P39743): 0; SPOT intensity (GST): 1; SPOT intensity (Sho1, P40073): 4; SPOT intensity (Bbc1, P47068): 8; SPOT intensity (Hse1, P38753): 0; SPOT intensity (Myo3, P36006): 47; SPOT intensity (Myo5, Q04439): 47
6 | 94 | 11 | 348 | 31 | 37 | 75 | 1 | 71 | 138 | 13 | 125 | 13 | 0 | 0 | 163 | 26 | 1 | 0 | 0 | 0 | RPVPRRPSQPLNTLS | SPOT intensity (Rvs167, P39743): 4060; SPOT intensity (GST): 0; SPOT intensity (Sho1, P40073): 95; SPOT intensity (Bbc1, P47068): 423; SPOT intensity (Hse1, P38753): 34; SPOT intensity (Myo3, P36006): 5; SPOT intensity (Myo5, Q04439): 0

Reference: publication PMC2756588
